Data on 50 sequences can be found in the supplement of paper PMC9112550, “Optimization of the antimicrobial peptide Bac7 by deep mutational scanning” (BMC Biology, 2022).

In this data set the test system is Escherichia coli TOP10. Description: shrunken log2 fold change of peptide-encoding DNA abundance (4.5 h post-induction vs induction); higher = less antimicrobial activity (less host growth inhibition). Conditions: time post-induction: 4.5 h; library: site-saturation at positions 5, 18, 19, 20.
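Also: peptides expressed intracellularly from a pBAD plasmid library in pooled LB shake-flask culture, induced with 0.3% L-arabinose, DNA abundance read by NGS, three biological replicates, DESeq2 with apeglm shrinkage.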

RRIRFRPPRLPRPRPRPRHMPRP: the “shrunken log2 fold change” value is -0.124.

For the sequence RRIRKRPPRLPRPRPRPMNRPRP, the “shrunken log2 fold change” value was -0.029.

As to RRIRTRPPRLPRPRPRPGVQPRP, the “shrunken log2 fold change” value was -0.133.

RRIRDRPPRLPRPRPRPSNFPRP: the “shrunken log2 fold change” value is -0.0206.

As to RRIRLRPPRLPRPRPRPAIFPRP, the “shrunken log2 fold change” value is -0.391.

Regarding RRIRDRPPRLPRPRPRPLADPRP, the “shrunken log2 fold change” value worked out at 0.0597.

For the sequence RRIRIRPPRLPRPRPRPVTQPRP, the “shrunken log2 fold change” value is -0.0794.

On to RRIRWRPPRLPRPRPRPSMWPRP, for which the “shrunken log2 fold change” value was found to be 0.111.

For RRIRTRPPRLPRPRPRPDSWPRP, the “shrunken log2 fold change” value was -0.595.

As to RRIRPRPPRLPRPRPRPPVHPRP, the “shrunken log2 fold change” value is -0.0329.

Turning to RRIRFRPPRLPRPRPRPLKDPRP, the “shrunken log2 fold change” value was -0.276.

As to RRIRGRPPRLPRPRPRPLDLPRP, the “shrunken log2 fold change” value was 0.717.

With RRIRSRPPRLPRPRPRPVKLPRP, the “shrunken log2 fold change” value is -0.104.

In the case of RRIRNRPPRLPRPRPRPGETPRP, the “shrunken log2 fold change” value came out at 0.0546.

On to RRIRWRPPRLPRPRPRPGSCPRP, for which the “shrunken log2 fold change” value is 0.389.

With RRIRWRPPRLPRPRPRPWYLPRP, the “shrunken log2 fold change” value is -0.193.

On to RRIRFRPPRLPRPRPRPIFRPRP, for which the “shrunken log2 fold change” value was -0.0966.

On to RRIRERPPRLPRPRPRPSSQPRP, for which the “shrunken log2 fold change” value turned out to be 0.123.

With RRIRMRPPRLPRPRPRPDITPRP, the “shrunken log2 fold change” value amounted to 2.12.

For RRIRFRPPRLPRPRPRPRLWPRP, the “shrunken log2 fold change” value came to 0.497.

Consider RRIRFRPPRLPRPRPRPPRAPRP, for which the “shrunken log2 fold change” value amounted to 0.92.

As for RRIRNRPPRLPRPRPRPRCRPRP, the “shrunken log2 fold change” value amounted to 0.104.

As for RRIRGRPPRLPRPRPRPNKNPRP, the “shrunken log2 fold change” value was 0.3.

Regarding RRIRARPPRLPRPRPRPFFDPRP, the “shrunken log2 fold change” value amounted to 0.107.

On to RRIRVRPPRLPRPRPRPCQPPRP, for which the “shrunken log2 fold change” value was -0.236.

RRIRIRPPRLPRPRPRPGNVPRP: the “shrunken log2 fold change” value was -0.0399.

On to RRIRRRPPRLPRPRPRPWSNPRP, for which the “shrunken log2 fold change” value is -0.226.

Regarding RRIRVRPPRLPRPRPRPFLVPRP, the “shrunken log2 fold change” value is -0.527.

Regarding RRIRHRPPRLPRPRPRPSSCPRP, the “shrunken log2 fold change” value is -0.0272.

Turning to RRIRSRPPRLPRPRPRPVEYPRP, the “shrunken log2 fold change” value is -0.553.

On to RRIRVRPPRLPRPRPRPQPWPRP, for which the “shrunken log2 fold change” value is 0.152.

As to RRIRSRPPRLPRPRPRPPVQPRP, the “shrunken log2 fold change” value was found to be 0.319.

As to RRIRTRPPRLPRPRPRPARMPRP, the “shrunken log2 fold change” value amounted to 0.127.

Take RRIRSRPPRLPRPRPRPWTWPRP: the “shrunken log2 fold change” value is -0.0804.

Regarding RRIRGRPPRLPRPRPRPEKSPRP, the “shrunken log2 fold change” value came to 0.0928.

As for RRIRYRPPRLPRPRPRPQAHPRP, the “shrunken log2 fold change” value is -0.149.

On to RRIRWRPPRLPRPRPRPYPPPRP, for which the “shrunken log2 fold change” value is -0.332.

Turning to RRIRYRPPRLPRPRPRPFPWPRP, the “shrunken log2 fold change” value was -0.18.

For RRIRPRPPRLPRPRPRPSCVPRP, the “shrunken log2 fold change” value is -0.368.

Regarding RRIRERPPRLPRPRPRPHVIPRP, the “shrunken log2 fold change” value is -0.133.

On to RRIRPRPPRLPRPRPRPAAAPRP, for which the “shrunken log2 fold change” value came out at 0.56.

RRIRSRPPRLPRPRPRPLRCPRP: the “shrunken log2 fold change” value came out at 0.435.

For the sequence RRIRQRPPRLPRPRPRPLHFPRP, the “shrunken log2 fold change” value was -0.0222.

For RRIRLRPPRLPRPRPRPQEEPRP, the “shrunken log2 fold change” value is -0.0207.

With RRIRWRPPRLPRPRPRPGGGPRP, the “shrunken log2 fold change” value came out at 0.953.

RRIRMRPPRLPRPRPRPSYAPRP: the “shrunken log2 fold change” value is -0.0187.

Regarding RRIRPRPPRLPRPRPRPTHWPRP, the “shrunken log2 fold change” value was found to be 0.484.

As for RRIRKRPPRLPRPRPRPNPFPRP, the “shrunken log2 fold change” value amounted to 1.91.

In the case of RRIRRRPPRLPRPRPRPADKPRP, the “shrunken log2 fold change” value is -0.121.

For RRIRQRPPRLPRPRPRPACWPRP, the “shrunken log2 fold change” value came out at 0.401.
